Measurements from the supplement of paper PMC10126150.
± gives the standard deviation of the averaged measurements.

Tested on: ATP
Experiment: switch fluorescence ratio, 500 uM ATP over buffer (Cy3 cluster intensity, sum of 5 cycles each) (fold (ratio)); higher = stronger signal-on switching upon ATP binding; sequences stand for … in TCGTCGGCAGCGTCAGATGTGTATAAGAGACAGTTTTTTTTTTTTTTTTTTTTTTTTT…TC
Conditions: aptamer strand: ATP DNA aptamer (quencher-CACCTGGGGGAGTATTGCGGAGGAAGG + anchor), 100 nM annealed; ATP concentration: 500 uM
Summary of the method: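 The quencher-labelled ATP aptamer, at 100 nM, was annealed to Cy3-labelled switching-strand clusters on a modified Illumina MiSeq flow-cell. The clusters were imaged in selection buffer, then after 15 min with 500 uM ATP at 22 °C, and this buffer/ATP cycle ran five times with NaOH stripping and re-annealing between runs. Per-cluster fluorescence ratios, summed target-cycle over summed buffer-cycle Cy3 intensity, were averaged per switch-domain sequence. Clusters outside 100-1000 RFU were excluded.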
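Note: ATP exposure 15 min at 22 °C before imaging.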

Sequence	switch fluorescence ratio
TCAAAGGGTC	1 ± 0.088
TCAAAGTGTA	0.968 ± 0.064
TCAAATAGTT	0.997 ± 0.0026
TCAAATGGGC	0.9965 ± 0.0031
TCAACAGTTG	0.998 ± 0.011
TCAACCAATG	1.04 ± 0.0039
TCAACCGGGG	1.079 ± 0.0021
TCAACCGTTT	1.02 ± 0.065
TCAACGCAGG	1.19 ± 0.065
TCAACTATGG	0.989 ± 0.075
TCAACTGGAT	0.9502 ± 0.0053
TCAAGCACTT	1.25 ± 0.028
TCAAGCCCAT	1 ± 0.045
TCAAGCTCAT	0.974 ± 0.023
TCAAGGCACC	1.1 ± 0.023
TCAAGGTTCT	0.998 ± 0.014
TCAAGTGAGG	1.01 ± 0.011
TCAAGTGGCC	1.02 ± 0.037
TCAAGTTTGG	1.02 ± 0.018
TCAATAATCG	1.01 ± 0.055
TCAATAGAAT	1.06 ± 0.14
TCAATAGAGT	1.039 ± 0.0024
TCAATCTCCT	1.03 ± 0.088

Sequence	switch fluorescence ratio
TCAATGATTT	0.969 ± 0.022
TCAATGGGGA	0.998 ± 0.013
TCAATGTAGT	1 ± 0.058
TCAATTAACT	1.03 ± 0.013
TCAATTCGAG	0.9884 ± 0.009
TCAATTGTAA	1.05 ± 0.051
TCAATTTTGC	1.02 ± 0.034
TCAATTTTTT	0.993 ± 0.016
TCACAGCCTG	0.9973 ± 0.0019
TCACAGGGGG	1.14 ± 0.12
TCACATGGGA	0.976 ± 0.011
TCACCAGATT	1.017 ± 0.008
TCACCATTCA	1.052 ± 0.0059
TCACGTGGTA	1.02 ± 0.021
TCACTATACT	1.41 ± 0.085
TCACTGGGTA	0.995 ± 0.014
TCACTGGTTC	1.032 ± 0.0038
TCACTGTCGC	1.13 ± 0.07
TCACTGTTTC	1.011 ± 0.0076
TCACTTCAAT	1.033 ± 0.0099
TCACTTTGCG	0.984 ± 0.032
TCAGAAATAG	1.24 ± 0.15
TCAGAGGCTG	0.988 ± 0.015

Sequence	switch fluorescence ratio
TCAGAGGGGG	0.992 ± 0.036
TCAGAGTGTG	0.989 ± 0.019
TCAGATAAAT	1.27 ± 0.35
TCAGATTGCA	1.007 ± 0.0025
TCAGCGAAAT	0.99 ± 0.016
TCAGCGACTT	1.01 ± 0.031
TCAGCGGGGA	1.001 ± 0.0066
TCAGCGTACG	1.01 ± 0.014
TCAGCGTGTG	1.0181 ± 0.00046
TCAGGACTCG	0.982 ± 0.035
TCAGGATATG	0.988 ± 0.035
TCAGGCGTTT	0.996 ± 0.024
TCAGGGACAG	1.02 ± 0.021
TCAGGGCAGC	1.01 ± 0.019
TCAGGGCGAT	1.03 ± 0.026
TCAGGGGCTT	1.16 ± 0.28
TCAGGGGGAA	1.01 ± 0.024
TCAGGGGTTA	1.03 ± 0.031
TCAGGGGTTC	0.9918 ± 0.0084
TCAGGGTTGA	1.03 ± 0.044
TCAGGTCTGT	0.9958 ± 0.0074
TCAGTAATAA	1.345 ± 0.013
TCAGTAGGCT	1.043 ± 0.0032

Sequence	switch fluorescence ratio
TCAGTCATGT	0.992 ± 0.028
TCAGTTATTT	1.04 ± 0.055
TCAGTTGACT	1.011 ± 0.0055
TCAGTTGTTG	1 ± 0.045
TCAGTTTGAG	0.97806 ± 0.0007
TCAGTTTTAT	0.9726 ± 0.0074
TCATAAGTAT	0.995 ± 0.086
TCATAGCGCC	1.01 ± 0.045
TCATAGTTGG	0.979 ± 0.025
TCATAGTTGT	1.01 ± 0.051
TCATAGTTTT	1.01 ± 0.042
TCATATTATC	1 ± 0.029
TCATATTGGA	0.979 ± 0.015
TCATATTTGT	0.981 ± 0.019
TCATATTTTT	1.006 ± 0.0064
TCATCAAGGG	0.965 ± 0.012
TCATCGCATG	1.3 ± 0.016
TCATCGGCTC	1.32 ± 0.11
TCATCGGGGC	1.03 ± 0.071
TCATCGGGTC	1.05 ± 0.017
TCATCGGTTC	1 ± 0.052
TCATCGGTTT	0.977 ± 0.017
TCATCTACTT	1.02 ± 0.041

Sequence	switch fluorescence ratio
TCATCTTAAT	0.992 ± 0.044
TCATGACAGC	1 ± 0.034
TCATGAGAGT	0.998 ± 0.011
TCATGAGGGA	1.02 ± 0.022
TCATGCTTGT	0.985 ± 0.035
TCATGGAGGC	1.02 ± 0.041
TCATGGATTT	1.01 ± 0.026
TCATGGCACC	1.05 ± 0.025
TCATGGCGCA	1.07 ± 0.013
TCATGGGAAG	1.02 ± 0.077
TCATGGGGGT	0.995 ± 0.028
TCATGGGGTC	0.975 ± 0.022
TCATGGGTTT	0.997 ± 0.04
TCATGTGCAT	1.129 ± 0.0048
TCATGTTTTG	0.9969 ± 0.0032
TCATTAAGAT	0.994 ± 0.053
TCATTAATAG	0.996 ± 0.012
TCATTAGGAA	1 ± 0.035
TCATTCCTTT	1.008 ± 0.0063
TCATTCGGTT	1.02 ± 0.016
TCATTCTAGG	1.009 ± 0.0031
TCATTGGGAC	1.06 ± 0.028
TCATTGGTAA	0.977 ± 0.047

Sequence	switch fluorescence ratio
TCATTGTGCT	0.975 ± 0.015
TCATTTAGAG	0.977 ± 0.019
TCATTTAGGT	0.967 ± 0.013
TCATTTATGT	0.9665 ± 0.0014
TCATTTGGGA	1.008 ± 0.0033
TCCAACTGCT	1.037 ± 0.0035
TCCAAGGGCA	1.01 ± 0.015
TCCACACGCT	2.14 ± 0.25
TCCACATATC	1.5 ± 0.0073
TCCACGATTA	1.108 ± 0.011
TCCACTTATT	1.05 ± 0.093
TCCAGCGCAC	3.81 ± 1.1
TCCAGCGCGG	1.14 ± 0.015
TCCAGGACGA	1.05 ± 0.023
TCCAGGACTA	1.02 ± 0.015
TCCAGGGGAT	1.07 ± 0.12
TCCAGGGTTT	1.06 ± 0.04
TCCAGGTTGG	1.15 ± 0.048
TCCAGTATGG	1.012 ± 0.008
TCCAGTTAGG	0.998 ± 0.051
TCCATATGGT	0.975 ± 0.023
TCCATCAGTA	0.985 ± 0.024
TCCATGGGAT	1.007 ± 0.0014

Sequence	switch fluorescence ratio
TCCATGTAA	1.01 ± 0.045
TCCCACTTCG	1.03 ± 0.053
TCCCAGTGCT	1.84 ± 0.21
TCCCATATAT	1.09 ± 0.014
TCCCATGTTG	1.05 ± 0.054
TCCCCCGCCG	1.09 ± 0.12
TCCCCCTGGT	1.37 ± 0.069
TCCCCTGGTT	1.64 ± 0.14
TCCCCTGTGT	1.86 ± 0.54
TCCCGGGAAT	0.987 ± 0.031
TCCCGGTAGT	1.01 ± 0.019
TCCCTAACAC	1.12 ± 0.023
TCCCTACTGT	1.02 ± 0.017
TCCCTGGGGG	1.08 ± 0.11
TCCCTTGGTT	1.05 ± 0.054
TCCGACTGAT	1.72 ± 0.05
TCCGAGATCT	1.08 ± 0.053
TCCGAGGTTT	1.28 ± 0.044
TCCGATGAGG	1.05 ± 0.074
